The record followed here is patent US20100040602A1 (RIBOVAX BIOTECHNOLOGIES, published 2010).

Experiment [1] concerns the target T1, gH(Ag)-GST fusion protein (gH amino terminal region, amino acids 16-144, hCMV strain VR1814, fused in frame … (human cytomegalovirus strain VR1814, UniProt P12824 16-144)).
T1 construct: also called gH antigen; not shown: Glutathione-S-Transferase (GST)
T1 chain: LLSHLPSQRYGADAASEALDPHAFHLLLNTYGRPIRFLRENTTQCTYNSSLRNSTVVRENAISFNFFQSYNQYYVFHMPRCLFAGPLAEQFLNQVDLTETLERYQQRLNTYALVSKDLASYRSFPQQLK
Put plainly: ELISA, plate-coated gH(Ag)-GST, cell culture supernatant, anti-human IgG-HRP. On the technique in general: In an ELISA, binding on a coated surface is turned into a signal by an enzyme label.

Experiment [2] concerns the target T2, CG3 antigen (recombinant interstrain fusion of gB Antigenic Domain 2 from hCMV strains AD169 and Towne) (human cytomegalovirus strain AD169; …).
T2 construct: Commercial antigen (Biotest AG, cod. 807035); also called gB (AD2) antigen
T2 chain: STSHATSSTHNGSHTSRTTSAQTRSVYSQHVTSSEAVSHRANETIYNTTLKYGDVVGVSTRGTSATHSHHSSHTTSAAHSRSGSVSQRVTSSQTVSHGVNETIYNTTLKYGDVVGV
Put plainly: ELISA, CG3 antigen (gB AD2), cell culture supernatant.

B1: 26A1 antibody (natural human IgG1 secreted by the 26A1 subculture, tested as cell culture supernatant) (antibody, V domains shown)
VH: QVQLQESGPGLVKPSQTLSLICTVSGGSVSSGGDYWTWIRQHPGKGLEWLGYIHSSGNIFYNPSLKSRLTLSMDTSKNQFFLKLTSVTAADTAVYYCARVYHKDFVVVPGAFPFEFWFDPWGQGTLVTVSS
VL: SYVLTQPPSVSVAPGQTARIPCGGNEIGSKSVHWYQQKPGQAPVLVVHDDSDRPSGIPDRFSGSNSGNTATLTISRVEAGDEADYYCQVWDSGSDHHVVFGGGTKLTVLG
notes: It is a human IgG1; also called 26A1 IgG; IgG1 produced by 26A1 culture
On to B1, for which the binding result in experiment [1] and in experiment [2] was “no binding” in each case.
